Assay results taken from PMC11098746 (2024).
No end group written: not given here.

Tests used:
Test in all cases: AVEXIS screen signal:noise (double-corrected)
ADP293 = molecular target: T1, ADP293
T1 chain: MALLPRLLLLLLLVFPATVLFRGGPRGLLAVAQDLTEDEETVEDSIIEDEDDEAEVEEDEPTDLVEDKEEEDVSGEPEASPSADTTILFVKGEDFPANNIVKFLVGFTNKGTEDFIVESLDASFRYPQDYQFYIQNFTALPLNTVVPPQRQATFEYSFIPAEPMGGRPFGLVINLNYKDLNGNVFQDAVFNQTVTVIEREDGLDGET

ADP315 = molecular target: T2, ADP315
T2 chain: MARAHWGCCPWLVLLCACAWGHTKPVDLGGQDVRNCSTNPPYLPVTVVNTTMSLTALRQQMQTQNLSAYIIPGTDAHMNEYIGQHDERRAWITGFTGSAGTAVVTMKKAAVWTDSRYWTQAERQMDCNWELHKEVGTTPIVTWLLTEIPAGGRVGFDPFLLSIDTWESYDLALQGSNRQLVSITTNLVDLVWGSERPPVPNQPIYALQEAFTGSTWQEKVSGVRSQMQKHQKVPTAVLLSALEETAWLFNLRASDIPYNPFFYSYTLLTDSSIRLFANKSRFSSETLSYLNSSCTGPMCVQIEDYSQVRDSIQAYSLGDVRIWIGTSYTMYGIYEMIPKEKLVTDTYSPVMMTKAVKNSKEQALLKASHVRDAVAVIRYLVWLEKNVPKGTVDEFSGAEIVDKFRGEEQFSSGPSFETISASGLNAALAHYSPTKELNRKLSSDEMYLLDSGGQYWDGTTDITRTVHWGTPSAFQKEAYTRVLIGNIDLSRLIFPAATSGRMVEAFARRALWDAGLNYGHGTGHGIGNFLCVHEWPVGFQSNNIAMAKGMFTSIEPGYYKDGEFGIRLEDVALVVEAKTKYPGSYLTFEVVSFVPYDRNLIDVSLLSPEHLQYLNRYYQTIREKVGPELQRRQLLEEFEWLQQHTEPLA

ADP369 = molecular target: ADP369
ADP339 = molecular target: T3, ADP339
T3 chain: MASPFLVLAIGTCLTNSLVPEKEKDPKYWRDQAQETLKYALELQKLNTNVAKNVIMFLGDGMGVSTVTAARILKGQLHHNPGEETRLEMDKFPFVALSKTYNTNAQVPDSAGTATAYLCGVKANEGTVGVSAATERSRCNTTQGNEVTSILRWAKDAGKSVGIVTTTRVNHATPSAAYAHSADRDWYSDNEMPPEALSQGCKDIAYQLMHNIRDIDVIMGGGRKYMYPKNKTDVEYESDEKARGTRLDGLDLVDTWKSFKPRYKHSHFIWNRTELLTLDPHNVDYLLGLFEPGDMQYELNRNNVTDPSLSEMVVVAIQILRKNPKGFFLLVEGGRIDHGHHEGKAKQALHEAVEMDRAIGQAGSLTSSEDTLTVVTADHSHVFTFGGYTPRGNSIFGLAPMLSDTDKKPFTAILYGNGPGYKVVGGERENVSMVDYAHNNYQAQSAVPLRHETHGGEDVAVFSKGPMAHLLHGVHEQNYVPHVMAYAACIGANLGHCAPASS

ADP269 = molecular target: T4, ADP269
T4 chain: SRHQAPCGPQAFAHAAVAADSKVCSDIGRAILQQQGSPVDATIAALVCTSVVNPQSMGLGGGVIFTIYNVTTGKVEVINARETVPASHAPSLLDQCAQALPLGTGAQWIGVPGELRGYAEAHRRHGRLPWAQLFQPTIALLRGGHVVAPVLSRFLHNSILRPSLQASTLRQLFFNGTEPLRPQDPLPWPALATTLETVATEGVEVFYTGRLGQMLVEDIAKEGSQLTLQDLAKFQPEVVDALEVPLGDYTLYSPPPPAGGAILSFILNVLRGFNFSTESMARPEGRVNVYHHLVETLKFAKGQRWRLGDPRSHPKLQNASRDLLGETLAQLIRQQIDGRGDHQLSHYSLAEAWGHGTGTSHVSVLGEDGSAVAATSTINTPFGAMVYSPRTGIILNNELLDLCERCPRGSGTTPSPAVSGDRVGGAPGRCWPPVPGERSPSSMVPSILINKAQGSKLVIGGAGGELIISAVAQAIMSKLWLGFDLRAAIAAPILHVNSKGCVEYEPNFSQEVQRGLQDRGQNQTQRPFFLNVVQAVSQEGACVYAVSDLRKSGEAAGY

B1: ADP188 (protein)
chain: QDEKSVKNICVCDFTDKLNFLPLEKTKILCELKPQYGEDIKIIANKEYEINCMNNAKVFCPLKDTFINNANIKLYSPKLHFEIKDITHKGKNAALYYLKIDEEASDIFFSCSIKPKQVSGLLEGEVRVNLKKHINEEYSIFNEEEDVHVCDFSKGNLDITPSAGFYLKNSRNVACIYRVIPNKLFLIKLPKLDIVTEKLLPSIVNCLSEFSFINFALKHVQEGDNYISFNVIFGEFKKHFNLACSLDLSDFQQEPCNLGKTANIAFIFSK
modifications: bait human Fc-tagged dimer; N-glycosylation sequons mutated in Plasmodium baits
With B1 the binding score (ADP293) was 5.5.

B2: ADP175 (protein)
chain: KVYQGQFYLKKNEKIHYLTKFSCNIGTCQFSIKMKLRDNIAAKLLNNYYKLNNKALKEMENDKDDGNNHNNNKYDDDNNNNNNRANKLLHMDYDNAYYVLSNQDLEYIPQRITLMQDIEQRYVNKNDKCYAFGNLKNSHMFNIPFYFKYSDLVNSKTYNLKNFINNKYSMSFNAIHSELKNNKLLQSEILNYGPILNEKNSNYAYKEIYAKTTHRVHVWFLMFDDCYDNFIRNLKLNIKTKLAYWEYLLHASKKFDISSLNDMDIKQDTSYNDFQNEETEKDIYSKENINNNNNNNMNNNMNEKKNKAIFYKSFNFDKITLLENPKRFLFLEEQFTKSEINDISFFLKYYQFKKMKNFNNMYNNLYKNGYYEQVIDYIYQNEGFHIEYEVNIFQTNKAHFSYE
modifications: bait human Fc-tagged dimer; N-glycosylation sequons mutated in Plasmodium baits
With B2 the binding score (ADP315) was 5.79.

B3: ADP186 (protein)
chain: YNLNNDLSKNNNFALNTYVRKDDVEDDSKNEIVDNIQKMVDDFSDDIGFVKTSMREVLLDTEASLEEVSDHVVQNIAKYSLTIEEKLNLFDGLLEEFIENNKGLISNLAKRQQKLKGDKIKKVCDLILKKLKKLENVNKLIKYKIILKYGNKDNKKEMIQTLKNEEGLSDDFKNNLANYETEQNNDDIKEIELVNFISTNYDKFVVNLEDLNKELLKDLNMALS
modifications: bait human Fc-tagged dimer; N-glycosylation sequons mutated in Plasmodium baits
Work on B3 yielded a binding score (ADP369) of 5.22.

B4: ADP181 (protein)
chain: SSNDKNKINKNNMPLQRGASNLKDINIHNVEKKSNMESVNNNINNAACSKNLNANKVPNVAHTGVNKKGETKNEEVEKEENENEEIEKEEIENEENQQNEEDENEENQQNEEDENEENQQMNVNVDVSAEKKNKELPEEKKELQKNSEKNINKEVIKDSNKDNTFNFHKNINTAFNKNKNIYNNNNNNNNNNKAFIEKKEEAIDMKKTHCSNNNKMCKYNNMNNHMSTNKNNNQIFEESKQNVNKPIYNLKSLGNNAFKNDEKYNENDYKNNHDDDKKKYTDDSNEENIYEERNQKILLIHLLKNIKELLNRQRQNFNNFLSFLSENYQSYEKFYKSQKYQNGKNYIDKLDQQGELKNVAVVTHSFLDMSKAANGKKDKNGVFVKLMNDQNDDGDDTKDGDDTKDEDDHKNEDDHKNEDDHKNEDDHKNEDDHKNGDDNKNGDDHKNGDDNKNGDDDNGKKSHDISDIKNIIDTILQSDDITDEQKKYLEIIKKILDLEEDVLNKEKEQLQLNKNIIEVLMGKSDELRNIAVNLKNGNGDNEASQRVDLAQNIVSNLLNFAVQLKNTGNIVYNNIQGQGELLQSIEKNIDKAENDLKKSTSVNTAFTPKNVPNTEQNDQETQTDDDINDADIDENNNANDKNNCHMYKKNNCHMYKKNNCKKYFLNSHYNNYLCKKQKKYNKNDMGNKQKDNKKFKLNEAMKNHFYNIFVKETVMLKKLYKVLFELF
modifications: bait human Fc-tagged dimer; N-glycosylation sequons mutated in Plasmodium baits
Binder B4 has a binding score (ADP339) of 6.19.

B5: ADP246 (protein)
chain: GLCKPCTLENHYCEGGLESDITFNNKLIKGKFHTLPKKCPRGLGIPNIIKERNSINNCLCIHGKVQRTTENKNVECFPCPPNTFKENEYDNSCSGACPPFSTTFVGSSYENQCFCKNNYYLVSTDDENDANGNSINNNKNIYNNNNIYNNNNNNNNNNNNNFNNKADVKKKSCKICPIGAICNRGFNIYIYLKLLNDRSYNNINVIDHETPFPKYGYYAVYREKTNPAKSWDTLDDSAILNYVYPYHKLLLFIQKNIQKGNYFFLEKGNKFFLNDDFVEKMNEKSKYEEENANKFVTKSEIIHNVNTNNLKGKHNTLNNNNNNNNINKASSFLNQNNYNNDIIQLSSYENNPFKNLASTSEVSSNNNVISFIQNNDKTNNAANDNNIENLVDIFNKYVQEAKELQIQNRKFERIPDIHPCTIPNRCLGTLINLCSDGSTGYQCNNCAKNYDMSYFKSKCKKCQNLFYE
modifications: bait human Fc-tagged dimer; N-glycosylation sequons mutated in Plasmodium baits
B5 showed a binding score (ADP339) of 15.5.

B6: ADP258 (protein)
chain: MGFHIQRYIAMMGRGINPKTWKKLWVDSKNKQIIHVYNDVAEFMNNQIAQVVRVYQYRY
modifications: also: human Fc-tagged dimer
B6 showed a binding score (ADP315) of 6.28.

B7: ADP191 (protein)
chain: IYYCNDNILENANNDDSTKDINNINKNSANKAKSEKTSNYNNDQYNIDDAYNEDEENDEEEGDDDENDHFEVPINCAGGNCFDSMDDINKIIDNKKKKMKYRRRRGKAIQIIKPNVNHAELIIIEENLEIFKRIDKPIAIVSVLGDMHTGKSFLLNLLNEHVIPDINKANKYIENGFKVGNDITASTYGIWIWSEPIRINVKKLKKIYEYINENFANFIKSYEYEKDEYNEEIIDLLNLYKTDDWISNVEELNLADTDEVNLILMDTQGLNSPNVNKRYDEILYALTNLISTDIIFLTMKMINNKDLEFIENIAKDANLFMLRAYTRSSGSTFSIKKNNFHKILDTLNNNLENNALILESIASKNLMWVVHDFSQRLDVRKGKLWLDILLNSDRRDLDIKYWKKIISNKAKDKHDAYTTKKQKIAYLTYNENSASGLLPNNNNNNNNANDASSNYKLNILYKNIDCVLLRNMYHNKEFDFTKANINDLNEEYKNDVLLLRYKIYLRALLFPKKMYSDVQINNIINKIRKEQKLREEQEKNKDNKKNDANNQANDLNSNKDETSGSQVTNRFMSGHDVYDFITFLVKSANQNLFTNVNQFFKHFKINRAEISRNDLIFLYKKYLLQFMENEDVEFISNLNDENDDLFLQKEGNNAAVNHDENSDADSLFNDHDENMQLKEHNIKDGEDNTHQKKDSYKLPPLLNEIKKYEELIREQILNIWYKYTESDFHDEEEKELIKDIENNLYERLDQIKIEMLELGEMNIRKFCKIACEDALQIVVEDIKMKSDQYPIKQKDLTTFFESVSYNLIKYLEKKLSKNSDKLDLIYYKDNICSPLINNAFQEFYFLKKKNIALNENRLKSYFSNAVEKGKEVFEVLAENTENIAEYFKNKNMFYTVLDKWTSEAINTYTLTLSDFAKEEKEINDEYLNVLNNDIKLLKQKAMEKWHNHCRDKTSALYNMHKSNLKKNFLENFNFPLDELVLQDIFLNLKGQEELKYMDIYCANEDSWNSEYKNFLKLTDEIFQFIKDENLKAIQITCQQPLDELKNGIKGEIHKYYLWSSLKSTLYNRALIVLSSNIENIYIKNQRENKIQSNLDEKYNNKNKNYKRISKDLMSKVINRWLNNDIYNVYYP
modifications: bait human Fc-tagged dimer; N-glycosylation sequons mutated in Plasmodium baits
With B7 the binding score (ADP269) was 9.74.
